Laboratory results reported in patent US20100196361A1, “Method of inhibition of vascular development using an antibody” (DYAX CORP., priority 2003, published 2010).

T1: Tie1-EpoR chimeric receptor (UniProt P14753+P35590)
T1 construct: PCR amplified extracellular part of human Tie1 (bp 37-2316 of X60975); expressed in transfected cells
T1 sequence (P35590+P14753 with tags, fused parts or gaps): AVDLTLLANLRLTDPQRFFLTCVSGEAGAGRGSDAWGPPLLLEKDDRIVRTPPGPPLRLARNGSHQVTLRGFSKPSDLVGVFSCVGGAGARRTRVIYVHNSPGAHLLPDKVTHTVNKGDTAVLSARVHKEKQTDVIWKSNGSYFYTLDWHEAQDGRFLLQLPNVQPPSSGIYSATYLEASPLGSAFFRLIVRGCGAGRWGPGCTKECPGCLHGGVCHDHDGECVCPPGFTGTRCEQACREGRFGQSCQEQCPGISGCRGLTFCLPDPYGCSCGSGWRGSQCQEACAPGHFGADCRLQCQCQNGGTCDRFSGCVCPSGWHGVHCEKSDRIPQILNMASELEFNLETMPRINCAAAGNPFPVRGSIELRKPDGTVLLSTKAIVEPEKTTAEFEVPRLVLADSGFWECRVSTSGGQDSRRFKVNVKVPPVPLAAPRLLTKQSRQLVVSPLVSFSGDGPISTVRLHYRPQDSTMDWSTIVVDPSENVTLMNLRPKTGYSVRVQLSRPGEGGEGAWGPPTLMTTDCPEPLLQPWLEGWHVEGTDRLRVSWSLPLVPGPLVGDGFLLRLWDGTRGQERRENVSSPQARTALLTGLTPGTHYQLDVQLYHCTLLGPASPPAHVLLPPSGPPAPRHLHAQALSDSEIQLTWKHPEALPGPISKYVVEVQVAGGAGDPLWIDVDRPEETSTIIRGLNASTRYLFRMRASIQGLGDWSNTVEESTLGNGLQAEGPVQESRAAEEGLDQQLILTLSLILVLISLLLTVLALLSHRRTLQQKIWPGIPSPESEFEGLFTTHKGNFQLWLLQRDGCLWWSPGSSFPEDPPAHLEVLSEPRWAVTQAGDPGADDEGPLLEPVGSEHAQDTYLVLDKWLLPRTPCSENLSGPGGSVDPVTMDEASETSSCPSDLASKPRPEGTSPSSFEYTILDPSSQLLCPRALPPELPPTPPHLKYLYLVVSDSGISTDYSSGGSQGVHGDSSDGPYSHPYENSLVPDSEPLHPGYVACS

B1: E3: human anti-Tie1 antibody from phage Fab library, reformatted as IgG; HC variable SEQ ID NO:114, LC variable SEQ ID NO:116 (antibody, V domains shown)
VH: EVQLLESGGGLVQPGGSLRLSCAASGFTFSMYGMVWVRQAPGKGLEWVSVISPSGGNTGYADSVKGRFTISRDNSKNTLYLQVNSLRAEDTAVYYCARAPRGYSYGYYYWGQGTLVTVSSASTKGPSVFPLAPSSKSTSGG
VL: DIQMTQSPLSLSASVGDRVTITCRASQGIGHYLAWYQQKPGKVPKLLIYTASTLQSGVPSRFSGSGSGTDFTLTINSLQPEDVATYYCQQFNSYPHTFGQGTRLDIK
modifications: IgG constant regions; Synthetically generated peptide
B2: parental E3 Fab: soluble Fab fragment of the parental E3 anti-Tie1 antibody (antibody, V domains shown)
VH: B1 VH
VL: B1 VL

Target: T1, Tie1-EpoR chimeric receptor
Assay: BaF3 bioassay (Tie1/EpoR chimeric BaF3 cell assay)
Type: cell-based, human
Conditions: for survival (viability) of Tie1-EpoR BaF3 cells: no IL-3, MTT
Description: BaF3 bioassay. To generate Tie1-EpoR expressing BaF3 cells for the bioassay, BaF3 pre-B cells were stably transfected with a nucleic acid that expresses chimeric receptor containing the extracellular domain of human Tie1 fused with the transmembrane and cytoplasmic domains of the mouse erythropoietin receptor. The nucleic acid used was a Tie1-EpoR chimeric cDNA in a pEF-BOS expression vector. The nucleic acid encoding the chimeric receptor was constructed by cloning the PCR amplified extracellular part of human Tie1 (bp 37-2316 of X60975) as EcoRI-BglII fragment into mEpoR-pcDNA vector. The cDNA encoding for the chimeric receptor consisting of the extracellular part of Tie1 fused with the transmembrane and intracellular domains of EpoR was subcloned into the pEF-BOS expression vector. Vector was linearized and co-transfected into BaF3 cells with pcDNA3.1(+) Zeo vector (Invitrogen). Stable cell pools were generated by selection with 250 μg/ml Zeocin. The expression of Tie1/EpoR fusion protein in several clones was analyzed by Western blotting with an antibody against EpoR.
To perform the assays, BaF3 cells expressing the Tie1-EpoR chimera were split in 96-well microtiter plates at 50 000 cells/well in the presence of the indicated concentrations of anti-Tie1 antibodies. The E3 antibody used in this study was the germ-lined E3 antibody (DX-2220). As controls, Zeocin resistant pools not expressing the Tie1-EpoR were used. After 48 h, the viability of the cells was determined by adding MTT (3-(4,5-dimethylthiazol-2-yl)-2,5-diphenyl tetrazolium bromide (Sigma), 0.5 mg/ml), followed by further 2 h of culture, addition of an equal volume of cell lysis solution (10% SDS, 10 mM HCl) and incubation overnight at 37° C. Absorbance was measured at 540 nm.
Stimulation and inhibition of Tie1 in Tie1-EpoR transfected BaF3 cells and human primary endothelial cells. Although no ligand for Tie1 has been identified, we used the following efficient screening method for Tie1-binding proteins. Interleukin-3 dependent pre-B-lymphocyte (BaF3) cells were transfected with a construct that expresses a Tie1-EpoR fusion protein. Since BaF3 cells are IL-3 dependent, they die unless IL-3 is provided. However, Tie-EpoR receptor expressing BaF3 cells can survive and proliferate if the medium contains a Tie1-binding protein, either a natural ligand or an artificial mimetic. Cell survival can be quantitated, e.g., by colorimetric MTT-assay, which measures mitochondrial activity.
To determine if any of the other monoclonal antibodies tested inhibit the survival effect of E3 IgG in Tie1-EpoR BaF3 assay, antibodies were studied in combination with E3 IgG. A concentration of 100 ng/ml of E3 IgG together with 100 (1:1) or 500 (1:5) ng/ml of the other antibodies were used and the viability of Tie1-EpoR cells was measured.

Molecule | viability of EpoR BaF3 cells used as a control (cells not expressing Tie1-EpoR) | survival (viability) of Tie1-EpoR BaF3 cells | survival (viability) of Tie1-EpoR BaF3 cells (listed as E3 IgG) | concentration giving almost maximal viability in Tie1-EpoR cell survival assays (viability dose dependent) [ng/mL]
B1 | not affected | functions as a Tie1 activating antibody in the BaF3 cell bioassay | able to promote survival of Tie1-EpoR cells | 50
B2 |  | no effect on the viability of Tie1-EpoR cells |  | 
